# Data taken from patent publication US10100129B2, “Antibodies against CD73 and uses thereof” (BRISTOL-MYERS SQUIBB COMPANY, priority 2014, dated 2018).
# Numbering of substitutions follows the chain as printed. Names and notes keep the numbering of the source.
# T1: CD32a-H131 (FcgRIIa-H131) (Homo sapiens, UniProt P12318)
# T1 sequence (P12318 34-217 limits assumed): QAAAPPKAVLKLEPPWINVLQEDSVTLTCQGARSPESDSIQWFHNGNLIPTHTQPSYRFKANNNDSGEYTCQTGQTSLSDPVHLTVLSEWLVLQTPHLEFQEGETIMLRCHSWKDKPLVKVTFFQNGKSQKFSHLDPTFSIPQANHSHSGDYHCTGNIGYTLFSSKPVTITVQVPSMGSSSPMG
# T2: CD32b (FcgRIIb) (Homo sapiens, UniProt P31994)
# T2 sequence (P31994 43-310): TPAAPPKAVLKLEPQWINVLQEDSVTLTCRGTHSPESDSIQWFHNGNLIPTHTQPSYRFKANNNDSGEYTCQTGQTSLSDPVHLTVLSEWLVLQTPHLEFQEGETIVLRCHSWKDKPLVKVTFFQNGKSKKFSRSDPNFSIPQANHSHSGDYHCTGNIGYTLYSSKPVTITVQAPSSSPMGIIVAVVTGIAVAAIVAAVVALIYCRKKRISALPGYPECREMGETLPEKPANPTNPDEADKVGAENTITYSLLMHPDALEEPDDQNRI
# T3: CD32a-R131 (FcgRIIa-R131) (Homo sapiens, UniProt P12318, H167R)
# T3 sequence (P12318 34-217 H167R limits assumed): T1 sequence (P12318 34-217 limits assumed) with H134R
# B1: mAb6-IgG2.5 (protein)
# constant: ASTKGPSVFPLAPSSRSTSESTAALGCLVKDYFPEPVTVSWNSGALTSGVHTFPAVLQSSGLYSLSSVVTVPSSNFGTQTYTCNVDHKPSNTKVDKTVERKCCVECPPCPAPPVAGPSVFLFPPKPKDTLMISRTPEVTCVVVDVSHEDPEVQFNWYVDGVEVHNAKTKPREEQFNSTFRVVSVLTVVHQDWLNGKEYKCKVSNKGLPAPIEKTISKTKGQPREPQVYTLPPSREEMTKNQVSLTCLVKGFYPSDIAVEWESNGQPENNYKTTPPMLDSDGSFFLYSKLTVDKSRWQQGNVFSCSVMHEALHNHYTQKSLSLSPGK
# modifications: left off: another chain or arm of the molecule
# B2: mAb5-IgG2.5 (protein)
# constant: B1 constant
# modifications: left off: another chain or arm of the molecule
# B3: mAb4-IgG2.5 (protein)
# constant: B1 constant
# modifications: left off: another chain or arm of the molecule
# B4: mAb13-IgG2.5 (protein)
# constant: B1 constant
# modifications: left off: another chain or arm of the molecule
# B5: mAb7-IgG2.3G1-AY-V27 (protein)
# constant: ASTKGPSVFPLAPCSRSTSESTAALGCLVKDYFPEPVTVSWNSGALTSGVHTFPAVLQSSGLYSLSSVVTVPSSNFGTQTYTCNVDHKPSNTKVDKTVERKSCVECPPCPAPELLGGPSVFLFPPKPKDTLMISRTPEVTCVVVDVEHEDPEVKFNWYVDGVEVHNAKTKPREEQYNSTYRVVSVLTVLHQDWLNGKEYKCKVSNKALPAPIEKTISKAKGQPREPQVYTLPPSREEMTKNQVSLTCLVKGFYPSDIAVEWESNGQPENNYKTTPPVLDSDGSFFLYSKLTVDKSRWQQGNVFSCSVMHEALHNHYTQKSLSLSPGK
# modifications: left off: another chain or arm of the molecule
# B6: mAb8-IgG2.5G1-AY-V27 (protein)
# constant: B5 constant with C14S, S102C
# modifications: left off: another chain or arm of the molecule
# B7: mAb7-IgG2.5G1-AY-V27 (protein)
# constant: B5 constant with C14S, S102C
# modifications: left off: another chain or arm of the molecule
# B8: IgG2.3G1-AY-V27: IgG2.3G1-AY constant region with S267E (protein)
# chain: B5 constant
# modifications: Synthetic: IgG2.3G1-AY-V27
# notes: IgG2.3G1-AY constant region with S267E
# B9: IgG2.3plusTHT: modified IgG2.3 constant region construct (protein)
# chain: ASTKGPSVFPLAPCSRSTSESTAALGCLVKDYFPEPVTVSWNSGALTSGVHTFPAVLQSSGLYSLSSVVTVPSSNFGTQTYTCNVDHKPSNTKVDKTVERKSCVETHTCPPCPAPPVAGPSVFLFPPKPKDTLMISRTPEVTCVVVDVSHEDPEVQFNWYVDGVEVHNAKTKPREEQFNSTFRVVSVLTVVHQDWLNGKEYKCKVSNKGLPAPIEKTISKTKGQPREPQVYTLPPSREEMTKNQVSLTCLVKGFYPSDIAVEWESNGQPENNYKTTPPMLDSDGSFFLYSKLTVDKSRWQQGNVFSCSVMHEALHNHYTQKSLSLSPGK
# modifications: Synthetic: IgG2.3-plusTHT
# notes: modified IgG2.3 constant region construct
# B10: IgG2.5plusTHT: modified IgG2.5 constant region construct (protein)
# chain: B9 chain with C14S, S102C
# modifications: Synthetic: IgG2.5-plusTHT
# notes: modified IgG2.5 constant region construct
# B11: IgG2.3plusGGG: modified IgG2.3 constant region construct (protein)
# chain: B9 chain with T106G, H107G, T108G
# modifications: Synthetic: IgG2.3-plusGGG
# notes: as for B9
# Target: CD64 (FcgRI) (Homo sapiens, UniProt P12314)
# Sequence (P12314 16-374): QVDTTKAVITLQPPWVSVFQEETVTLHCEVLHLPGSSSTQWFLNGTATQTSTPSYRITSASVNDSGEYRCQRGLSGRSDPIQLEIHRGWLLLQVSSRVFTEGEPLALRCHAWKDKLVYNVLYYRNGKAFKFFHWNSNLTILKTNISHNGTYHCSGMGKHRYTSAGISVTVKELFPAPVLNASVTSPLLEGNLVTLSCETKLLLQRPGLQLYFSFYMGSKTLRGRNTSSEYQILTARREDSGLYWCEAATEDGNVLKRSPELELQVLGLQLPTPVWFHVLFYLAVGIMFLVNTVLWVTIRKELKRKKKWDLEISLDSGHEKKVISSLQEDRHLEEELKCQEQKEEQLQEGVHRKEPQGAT
# Experiment: SPR binding of 1.0 μM antibody to anti-his Fab captured FcgR-his: CD64
# Conditions: not given
# Experimental: (§1) The binding of antibodies to Fc gamma receptors (FcγRs or FcgRs) was studied using biosensor technologies including Biacore surface plasmon resonance (SPR) and Fortebio Biolayer Interferometry (BLI). SPR studies were performed on a Biacore T100 instrument (GE Healthcare) at 25° C. The Fab fragment from a murine anti-6×His antibody was immobilized on a CM5 sensor chip using EDC/NHS to a density of ˜3000 RU. Various his-tagged FcgRs (7 ug/ml) were captured via the C-terminal his-tag using a contact time of 30 s at 10 ul/min, and the binding of 1.0 μM antibody was evaluated in a running buffer of 10 mM NaPO4, 130 mM NaCl, 0.05% p20 (PBS-T) pH 7.1. FcgRs used for these experiments included CD64 (FcgRI), CD32a-H131 (FcgRIIa-H131), CD32a-R131 (FcgRIIa-R131), CD32b (FcgRIIb), CD16a-V158 (FcgRIIIa-V158), CD16b-NA1 (FcgRIIIb-NA1), and CD16B-NA2 (FcgRIIIb-NA2). BLI experiments were performed on a Fortebio Octet RED instrument (Pall, Fortebio) at 25° C. in 10 mM NaPO4, 130 mM NaCl, 0.05% p20 (PBS-T) pH 7.1. Antibodies were captured out of undiluted expression supernatants on protein A coated sensors, followed by the binding of 1 μM hCD32a-H131, hCD32a-R131, hCD32b, hCD16a-V158, or 0.1 μM hCD64 analytes.
row,Molecule,"% Rmax, binding to hCD64"
1,B1,3%
2,B2,6%
3,B3,2%
4,B4,−2%
5,B5,84%
6,B6,77%
7,B7,81%

# System: human FcγRs
# Experiment: SPR binding profile to human FcγRs (panel)
# Conditions: not given
# Experimental: Binding of the constructs to human FcγRs was measured via SPR. hCD64 and hCD32a-H131 binding data for IgG1.1 and IgG2 molecules were consistent with expected values for the different Fcs. IgG1.1f is the most inert Fc.
# as §1
# This engineering strategy was further explored by producing other antibodies formatted with IgG2.3G1-AY, IgG2.3G1-AY-S267E (IgG2.3G1-AY-V27), as well as IgG2-B-form variants (IgG2.5G1-AY and IgG2.5G1-AY-V27), and other hybrid antibodies containing different combinations of IgG1 and IgG2 constant domains, and testing the binding of these antibodies to anti-his Fab captured his-tagged FcgRs using Biacore SPR technology.
row,Molecule,FcgR binding properties by SPR (in words)
1,B8,"comparable FcgR binding properties to IgG1f and IgG1f-S267E, respectively"
2,B9,unable to retain IgG1f-like FcgR binding properties
3,B10,unable to retain IgG1f-like FcgR binding properties
4,B11,unable to retain IgG1f-like FcgR binding properties

# Target: CD16B-NA2 (FcgRIIIb-NA2) (Homo sapiens, UniProt O75015)
# Sequence (O75015 17-200 limits assumed): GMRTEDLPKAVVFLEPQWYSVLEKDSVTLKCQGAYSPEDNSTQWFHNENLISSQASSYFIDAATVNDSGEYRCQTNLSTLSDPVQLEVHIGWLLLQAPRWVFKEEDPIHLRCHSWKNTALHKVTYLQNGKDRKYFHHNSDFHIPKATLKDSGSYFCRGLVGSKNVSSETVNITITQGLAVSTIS
# Experiment: SPR binding to FcgR-his: CD16B-NA2
# Conditions: 1 μM antibody, anti-his Fab captured FcgR-his
# Experimental: as §1
row,Molecule,"% Rmax, binding to hCD16B-NA2"
1,B1,0%
2,B2,1%
3,B3,0%
4,B4,−2%
5,B5,7%
6,B6,10%
7,B7,9%

# Target: CD16a-V158 (FcgRIIIa-V158) (Homo sapiens, UniProt P08637, F176V)
# Sequence (P08637 17-208 F176V limits assumed): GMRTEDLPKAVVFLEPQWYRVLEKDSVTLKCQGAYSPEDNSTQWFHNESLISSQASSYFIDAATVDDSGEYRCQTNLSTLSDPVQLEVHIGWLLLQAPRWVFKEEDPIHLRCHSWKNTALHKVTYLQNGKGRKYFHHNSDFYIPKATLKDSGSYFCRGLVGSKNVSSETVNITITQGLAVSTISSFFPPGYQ
# Experiment: SPR binding to FcgR-his: CD16a-V158
# Conditions: 1 μM antibody, anti-his Fab captured FcgR-his
# Experimental: as §1
row,Molecule,"% Rmax, binding to hCD16a-V158"
1,B1,2%
2,B2,4%
3,B3,1%
4,B4,0%
5,B5,26%
6,B6,33%
7,B7,32%

# Target: T1, CD32a-H131 (FcgRIIa-H131)
# Experiment: SPR binding to FcgR-his: CD32a-H131
# Conditions: 1 μM antibody, anti-his Fab captured FcgR-his
# Experimental: as §1
row,Molecule,"% Rmax, binding to hCD32a-H131"
1,B1,75%
2,B2,89%
3,B3,46%
4,B4,39%
5,B5,68%
6,B6,76%
7,B7,74%

# Target: T2, CD32b (FcgRIIb)
# Experiment: SPR binding to FcgR-his: CD32b
# Conditions: 1 μM antibody, anti-his Fab captured FcgR-his
# Experimental: as §1
row,Molecule,"% Rmax, binding to hCD32b"
1,B1,4%
2,B2,5%
3,B3,1%
4,B4,−2%
5,B5,76%
6,B6,77%
7,B7,84%

# Target: T3, CD32a-R131 (FcgRIIa-R131)
# Experiment: SPR binding to FcgR-his: CD32a-R131
# Conditions: 1 μM antibody, anti-his Fab captured FcgR-his
# Experimental: as §1
row,Molecule,"% Rmax, binding to hCD32a-R131"
1,B1,17%
2,B2,26%
3,B3,8%
4,B4,4%
5,B5,92%
6,B6,79%
7,B7,89%
